Results from paper PMC4963197, “Phosphorylation acts positively and negatively to regulate MRTF-A subcellular localisation and activity” (eLife, 2016).

B1: MRTF-A(67–199) WT: recombinant MRTF-A(67–199), intact RPEL domain (protein, UniProt Q8K4J6 67-199, looked up, fragment)
chain: SRPERAELVRMHILEETSAEPSLQAKQLKLKRARLADDLNEKIAQRPGPMELVEKNILPVESSLKEAIIVGQVNYPKVADSSSFDEDSSDALSPEQPASHESQGSVPSPLESRVSDPLPSATSISPTQVLSQL
B2: MRTF residues 2–67: MRTF-A N-terminal residues 2–67 containing NES1 (protein, UniProt Q8K4J6 2-67, looked up, fragment)
chain: TLLEPEMLMMAVQSVLQLKLQQRRTREELVSQGIMPPLKSPAAFHEQRRSLERARTEDYLKRKIRS

Tests used:
G-actin = target: T1, G-actin (Oryctolagus cuniculus, UniProt P68135); experiment: Size exclusion chromatography of G-actin / MRTF-A(67–199) complexes; assay type: binding; conditions: SEC, recombinant MRTF-A(67–199)
T1 construct: Actin was prepared as described ([Mouilleron et al., 2008]); from tissue; host or cells: rabbit skeletal muscle (own knowledge of the cited method)
Experimental: GST-fusions were expressed in E. coli Rosetta (DE3) pLysS (Novagen). Lysis was in 50 mM Tris-HCl pH 7.5, 300 mM NaCl, 1% TX-100, 5 mM DTT, 10 mM EDTA pH 8, 1 mM PMSF, 15 μg/mL Benzamidine, followed by passage through a French press. Following adsorption onto glutathione-Sepharose, proteins were recovered by cleavage with GST-3C protease at 4°C overnight in 50 mM Tris-HCl (pH 7.5), 100 mM NaCl, 1 mM DTT. Crm1 and Ran(1–180) Q69L were purified as described ([Güttler et al., 2010]).
Preparation of LatB-actin and fluorescence polarisation anisotropy assay were described ([Guettler et al., 2008]). Size exclusion chromatography was on Superdex 200 column equilibrated in 20 mM Tris (pH 8), 100 mM NaCl, 3 mM MgCl2, 0.2 mM EGTA, 0.3 mM TCEP [(tris(2-carboxyethyl)phosphine)], 5% (v/v) glycerol, calibrated with globular proteins of known molecular weight.

Crm1 = experiment: GST pulldown of recombinant Crm1; assay type: binding; conditions: Ran 1–180 Q69L, 3 hr at 4°C
Experimental: For GST pulldown assays, glutathione-sepharose was saturated with GST-fusion proteins, washed in binding buffer (50 mM Tris-HCl pH 7.5, 100 mM NaCl, 10 mM MgCl2, 0.05% NP-40), and incubated with purified recombinant Crm1, Ran(1–180) Q69L or ERK2 for 3 hr at 4°C. After four washes with binding buffer, proteins were eluted in SDS loading buffer for analysis. For kinase assays, glutathione-Sepharose was saturated with GST-MRTF 2–199, washed in binding buffer, and incubated with purified recombinant ERK2 and actin in binding buffer with 250 μM ATP and 10 mg/ml BSA, at 30°C. The reaction was stopped by addition of SDS loading buffer.

Row | Molecule | apparent molecular mass of G-actin complex (G-actin; Superdex 200, 20 mM Tris (pH 8), 100 mM NaCl, 3 mM MgCl2, 0.2 mM EGTA, 0.3 mM TCEP, 5% glycerol) | apparent stoichiometry of G-actin binding (G-actin; Superdex 200, pH 8, calibrated with globular proteins) | recovery of recombinant Crm1 (Crm1)
1 | B1 | 139.8 kDa | 3.0 actins | –
2 | B2 | – | – | could recover recombinant Crm1 from solution in a pulldown assay
